Results as given in US20040033229A1 (published 2004).

Biological target: prostate specific membrane antigen (PSMA), full-length, on the cell surface (human, UniProt Q04609 1-750)
Assay: cell-based or functional assay

Sequence of prostate specific membrane antigen (PSMA), full-length, on the cell surface (Q04609 whole entry): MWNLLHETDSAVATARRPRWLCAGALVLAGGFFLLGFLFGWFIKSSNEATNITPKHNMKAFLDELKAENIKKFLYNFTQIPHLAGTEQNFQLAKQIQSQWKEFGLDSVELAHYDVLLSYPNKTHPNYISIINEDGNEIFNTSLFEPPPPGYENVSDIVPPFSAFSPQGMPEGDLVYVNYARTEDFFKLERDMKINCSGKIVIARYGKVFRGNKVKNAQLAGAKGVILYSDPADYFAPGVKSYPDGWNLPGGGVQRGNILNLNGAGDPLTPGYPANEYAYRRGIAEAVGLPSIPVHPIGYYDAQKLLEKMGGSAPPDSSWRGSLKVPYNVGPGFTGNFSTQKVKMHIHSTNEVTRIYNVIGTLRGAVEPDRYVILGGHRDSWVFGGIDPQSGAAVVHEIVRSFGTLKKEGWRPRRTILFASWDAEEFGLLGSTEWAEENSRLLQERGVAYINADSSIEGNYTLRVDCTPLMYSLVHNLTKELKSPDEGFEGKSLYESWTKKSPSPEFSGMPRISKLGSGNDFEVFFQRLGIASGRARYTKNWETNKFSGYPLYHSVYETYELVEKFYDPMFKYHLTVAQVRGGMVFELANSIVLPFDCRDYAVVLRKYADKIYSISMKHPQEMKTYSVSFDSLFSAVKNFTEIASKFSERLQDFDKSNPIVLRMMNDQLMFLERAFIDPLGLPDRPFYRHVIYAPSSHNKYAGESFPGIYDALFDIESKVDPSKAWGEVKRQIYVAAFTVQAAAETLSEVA

B1: 225Ac labeled mAb 026 (antibody, V domains shown)
VH: QVQLVESGGGVVQPGRSLRLSCAASGFTFSNYVMHWVRQAPGKGLEWVAIIWYDGSNKYYADSVKGRFTISRDNSKNTLYLQMNSLRAEDTAVYYCAGGYNWNYEYHYYGMDVWGQGTTVTVSS
VL: DIQMTQSPSSLSASVGDRVTITCRASQGITNYLAWFQQKPGKAPKSLIYAASSLQSGVPSKFSGSGSGTDFSLTISSLQPEDFATYYCQQYNSYPITFGQGTRLEIK
modifications: 225Ac-DOTA conjugate, sites not stated; 225Ac-DOTA conjugate, sites not stated ; 225Ac chelated by DOTA and conjugated to the antibody; sites not stated
  IC50 of cell survival (3H thymidine incorporation), C4-2 cells: 0.12 nCi/mL
  IC50 of cell survival, C4-2 and LNCaP cells: < 1 nCi/mL
  selectivity of killing, C4-2 against PC3: > 50 fold
